Laboratory results taken from article PMC7391724 (Scientific Reports, 2020).

Tests used:
[1] = system: KB tumor xenografts; experiment: KB tumor xenograft in nu/nu mice; format: in vivo; details: EC2629 0.3 µmol/kg iv SIW x 2 weeks
Method: (§1) Four- to eight-week-old female nu/nu mice and rats (Harlan Sprague Dawley, Inc.), were maintained on a standard 12-h light–dark cycle and fed ad libitum with a low-folate chow (Harlan Teklad diet #TD.01013, Madison, WI) for the duration of dosing and 1 week post dosing schedule. Mice and rats were then switched to Teklad Global 18% Rodent diet (Harlan Teklad diet #2018S) during the monitoring phase of the study. Parental KB, KB-CR2000 or KB-PR10 cells (1 × 10^6/100 µL per nu/nu mouse and 5 × 10^6/200 µL per nu/nu rat) were injected into the subcutis of the dorsal medial area. Mice were divided into groups of 5 and rats in groups of 3–4, and freshly prepared test articles were injected through the lateral tail vein under sterile conditions in a volume of 200 μL/20 g of PBS. In mice, intravenous treatments typically initiated on day 7 PTI when KB tumors were approximately 111–168 mm^3 in volume, on day 5 PTI when the KB-PR tumors were about 205–243 mm^3, and on day 6 PTI when the KB-CR tumors were around 98 to 168 mm^3. Treatments in rats were started on day 10 PTI when KB tumors were approximately 412–704 mm^3 in volume.
Animals in the control groups received no treatment. Growth of each subcutaneous tumor was followed by measuring the tumor 3 times per week during treatment and twice per week thereafter, until a maximum volume of 1,500 mm^3 for mice and 15,000 mm^3 for rats were reached. Tumors were measured in two perpendicular directions using Vernier calipers, and their volumes were calculated as V = 0.5 × L × W^2, where L = measurement of longest axis in mm and W = measurement of axis perpendicular to L in mm[16]. As a general measure of gross toxicity, changes in body weights were determined on the same schedule as tumor volume measurements. Survival of animals was monitored daily. Animals that were moribund (or unable to reach food or water) were euthanized by CO2 asphyxiation. Individual tumor response endpoints were reported in terms of tumor volume change. A partial response (PR) was defined as volume regression > 50% but with measurable tumor (> 2 mm^3) remaining at all times. Complete response (CR) was defined as a disappearance of measurable tumor mass (< 2 mm^3) at some point within 90 days after tumor implantation. Cures were defined as CRs without tumor regrowth within the 90-day study time frame.

[2] = system: KB tumor xenografts; experiment: KB tumor xenograft in nu/nu rats; format: in vivo; details: EC2629 0.15 µmol/kg iv SIW x 2 weeks
Method: as §1, with “In mice, intravenous treatments typically initiated on day 7 PTI when KB tumors were approximately 111–168 mm^3 in volume, on day 5 PTI when the KB-PR tumors were about 205–243 mm^3, and on day 6 PTI when the KB-CR tumors were around 98 to 168 mm^3. Treatments in rats were started on day 10 PTI when KB tumors were approximately 412–704 mm^3 in volume.” left out
Animals in the control groups received no treatment. […] Tumors were measured in two perpendicular directions using Vernier calipers, and their volumes were calculated as V = 0.5 × L × W^2, where L = measurement of longest axis in mm and W = measurement of axis perpendicular to L in mm[16]. As a general measure of gross toxicity, changes in body weights were determined on the same schedule as tumor volume measurements. Survival of animals was monitored daily. […]

[3] = Plasma stability, mouse; format: in vitro ADME; details: 500 nM, 37 °C, 2 h
Method: (§2) Whole blood and plasma stability were determined for EC2629 and EC2491 at a concentration of 500 nM. Samples were extracted and analyzed using fit-for-purpose bioanalytical methods. EC2629 or EC2491 was spiked into 1 mL whole blood or plasma maintained at 37 °C for 30 min prior to use . Fifty µl aliquots were then removed at defined timepoints and stored in a 1.2 mL extraction plate prior to analysis. Samples were then extracted using protein precipitation with a 3:1 ratio of acetonitrile after addition of internal standard. The supernatant was then transferred to a new plate, evaporated, and reconstituted prior to LC–MS/MS analysis.

[4] = Plasma stability, human; format: in vitro ADME; details: 500 nM, 37 °C, 2 h
Method: as §2

With `C=C1C[C@H]2C=Nc3cc(OCCCCCOc4cc(N)c(C(=O)N5CC(=C)C[C@H]5C5OCCN5C(=O)OCC(C)(C)SSCCC(=O)NCCNC(=O)CCOCCOCCOCCOCCNC(=O)CCN5C(=O)CC(SC[C@H](NC(=O)[C@H](CC(=O)O)NC(=O)[C@H](CC(=O)O)NC(=O)[C@H](CCCNC(=N)N)NC(=O)[C@H](CC(=O)O)NC(=O)CC[C@H](NC(=O)c6ccc(NCc7cnc8nc(N)[nH]c(=O)c8n7)cc6)C(=O)O)C(=O)O)C5=O)cc4OC)c(OC)cc3C(=O)N2C1` (stereo partly shown) [EC2629] the body weight change [1] was “did not lose any significant weight”, the body weight change [2] was “did not lose any significant weight” and the plasma stability [3] was “stable”. For the same molecule, the plasma stability [4] was “stable”.
